Target: T1, GFP-UTP15 IDR (UniProt Q8C7V3 314-528)
T1 sequence: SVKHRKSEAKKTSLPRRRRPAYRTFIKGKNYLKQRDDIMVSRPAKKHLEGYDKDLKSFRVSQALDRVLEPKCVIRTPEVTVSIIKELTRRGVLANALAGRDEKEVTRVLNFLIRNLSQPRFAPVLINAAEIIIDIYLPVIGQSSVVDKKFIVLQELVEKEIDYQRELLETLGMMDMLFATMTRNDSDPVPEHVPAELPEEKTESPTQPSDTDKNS
Experiment: EMSA

## UCGUGUCUCGCUUGACCAUGUUCCCAGAGUCGGUGGAUGU (ssRNA) [5'ETS RNA probe]
  binding result: binds

Source: article PMC12804927
